{"source": "patent US5310665A", "about": "“Glucose isomerases having altered substrate specificity” (Gist-brocades, N.V., priority 1990, dated 1994)", "key": {"[1]": {"test_system": "O=C[C@H](O)[C@@H](O)[C@H](O)CO", "test": "purified protein, by the assay type", "settings": "pH 7.5"}, "[2]": {"test_system": "T1, O=C[C@H](O)[C@@H](O)[C@H](O)CO", "T1 construct": "made in house; host or cells: E. coli K514", "test": "purified protein, by the assay type", "assay_type": "biochemical, Actinoplanes missouriensis", "settings": "other: xylose, 35° C., 10 mM Mg2+, pH 7.5", "experimental": "Alternatively, the D-fructose produced during the isomerization reaction can be determined enzymatically using sorbitol dehydrogenase and NADH.\nAs a measure of specificity the quotient is Vmax /Km is sometimes used (Wells et al., ibid). […] These temperatures are chosen for practical reasons.\nActivities were measured on purified enzyme. The coupled sorbitol dehydrogenase assay was used for xylose, the cysteine-carbazole or discontinuous sorbitol dehydrogenase method was used for glucose."}}, "data": [{"substance": "Actinoplanes missouriensis glucose isomerase, wild type, SEQ ID NO: 1 (Actinoplanes missouriensis 431)", "values": [{"measurement": "Km", "setting": "[1]; other: 35° C., 1 mM Mn", "result": 13.2, "unit": "mM"}, {"measurement": "Vmax", "setting": "[1]; other: 35° C., 1 mM Mn", "result": 8.6, "unit": "µmol/min/mg"}, {"measurement": "Km", "setting": "[1]; other: xylose, 35° C., 10 mM Mg2+", "result": 4.8, "unit": "mM"}]}, {"substance": "Actinoplanes missouriensis glucose isomerase variant T90S (Actinoplanes missouriensis 431; T90S)", "values": [{"measurement": "Km", "setting": "[2]", "result": 16.8, "unit": "mM"}]}, {"substance": "Actinoplanes missouriensis glucose isomerase variant A25K (Actinoplanes missouriensis 431; A25K)", "values": [{"measurement": "Km", "setting": "[2]", "result": 2.73, "unit": "mM"}]}, {"substance": "Actinoplanes missouriensis glucose isomerase variant V135Q (Actinoplanes missouriensis 431; V135Q)", "values": [{"measurement": "Km", "setting": "[2]", "result": 56, "unit": "mM"}]}, {"substance": "Actinoplanes missouriensis glucose isomerase variant M88SH243N (M88S/H243N) (Actinoplanes missouriensis 431; H243N/M88S)", "values": [{"measurement": "Km", "setting": "[2]", "result": 11.9, "unit": "mM"}]}, {"substance": "Actinoplanes missouriensis glucose isomerase variant M88SH290N (M88S/H290N) (Actinoplanes missouriensis 431; H290N/M88S)", "values": [{"measurement": "Km", "setting": "[2]", "result": 14.8, "unit": "mM"}]}, {"substance": "Actinoplanes missouriensis glucose isomerase variant M88S (Actinoplanes missouriensis 431; M88S)", "values": [{"measurement": "Km", "setting": "[2]", "result": 7.6, "unit": "mM"}]}, {"substance": "Actinoplanes missouriensis glucose isomerase variant H290N (Actinoplanes missouriensis 431; H290N)", "values": [{"measurement": "Km", "setting": "[2]", "result": 9.7, "unit": "mM"}]}]}
